Assays:
[1] = tested on: CC(=O)N[C@@H](Cc1cnc[nH]1)C(=O)N[C@@H](Cc1ccccc1)C(=O)N[C@@H](CO)C(=O)N[C@@H](CCCCNC(=O)CCC(=O)O)C(=O)Nc1ccc2c(C)cc(=O)oc2c1; test: (§1) Substrate activity at human N-terminal His-tagged SIRT5 (34 to 302 residues) expressed in Escherichia coli assessed as Kcat measured after 1 hr in presence of NAD+ and trypsin by Michaelis-Menten kinetic model based fluorescence assay
[2] = tested on: Cc1cc(=O)oc2cc(NC(=O)[C@H](CCCCNC(=O)CCC(=O)O)NC(=O)OCc3ccccc3)ccc12; test: as §1
[3] = tested on: CC(=O)N[C@@H](CC(C)C)C(=O)NCC(=O)N[C@@H](CO)C(=O)N[C@@H](CCCCNC(=O)CCC(=O)O)C(=O)Nc1ccc2c(C)cc(=O)oc2c1; test: as §1
[4] = tested on: CC(=O)N[C@@H](CO)C(=O)N[C@@H](CC(C)C)C(=O)NCC(=O)N[C@@H](CCCCNC(=O)CCC(=O)O)C(=O)Nc1ccc2c(C)cc(=O)oc2c1; test: as §1
[5] = tested on: CC(=O)N[C@@H](Cc1cnc[nH]1)C(=O)N[C@@H](Cc1ccccc1)C(=O)N[C@@H](CO)C(=O)N[C@@H](CCCCNC(=O)CCC(=O)O)C(=O)Nc1ccc2c(C)cc(=O)oc2c1; test: (§2) Substrate activity at human N-terminal His-tagged SIRT5 (34 to 302 residues) expressed in Escherichia coli assessed as Vmax measured after 1 hr in presence of NAD+ and trypsin by Michaelis-Menten kinetic model based fluorescence assay
[6] = tested on: Cc1cc(=O)oc2cc(NC(=O)[C@H](CCCCNC(=O)CCC(=O)O)NC(=O)OCc3ccccc3)ccc12; test: as §2
[7] = tested on: CC(=O)N[C@@H](CC(C)C)C(=O)NCC(=O)N[C@@H](CO)C(=O)N[C@@H](CCCCNC(=O)CCC(=O)O)C(=O)Nc1ccc2c(C)cc(=O)oc2c1; test: as §2
[8] = tested on: CC(=O)N[C@@H](CO)C(=O)N[C@@H](CC(C)C)C(=O)NCC(=O)N[C@@H](CCCCNC(=O)CCC(=O)O)C(=O)Nc1ccc2c(C)cc(=O)oc2c1; test: as §2
[9] = tested on: CC(=O)N[C@@H](Cc1cnc[nH]1)C(=O)N[C@@H](Cc1ccccc1)C(=O)N[C@@H](CO)C(=O)N[C@@H](CCCCNC(=O)CCC(=O)O)C(=O)Nc1ccc2c(C)cc(=O)oc2c1; test: (§3) Substrate activity at human N-terminal His-tagged SIRT5 (34 to 302 residues) expressed in Escherichia coli assessed as Km measured after 1 hr in presence of NAD+ and trypsin by Michaelis-Menten kinetic model based fluorescence assay
[10] = tested on: Cc1cc(=O)oc2cc(NC(=O)[C@H](CCCCNC(=O)CCC(=O)O)NC(=O)OCc3ccccc3)ccc12; test: as §3
[11] = tested on: CC(=O)N[C@@H](CC(C)C)C(=O)NCC(=O)N[C@@H](CO)C(=O)N[C@@H](CCCCNC(=O)CCC(=O)O)C(=O)Nc1ccc2c(C)cc(=O)oc2c1; test: as §3
[12] = tested on: CC(=O)N[C@@H](CO)C(=O)N[C@@H](CC(C)C)C(=O)NCC(=O)N[C@@H](CCCCNC(=O)CCC(=O)O)C(=O)Nc1ccc2c(C)cc(=O)oc2c1; test: as §3
[13] = tested on: CC(=O)N[C@@H](Cc1cnc[nH]1)C(=O)N[C@@H](Cc1ccccc1)C(=O)N[C@@H](CO)C(=O)N[C@@H](CCCCNC(=O)CCC(=O)O)C(=O)Nc1ccc2c(C)cc(=O)oc2c1; test: (§4) Substrate activity at human N-terminal His-tagged SIRT5 (34 to 302 residues) expressed in Escherichia coli assessed as ratio of Kcat to Km measured after 1 hr in presence of NAD+ and trypsin by Michaelis-Menten kinetic model based fluorescence assay
[14] = tested on: Cc1cc(=O)oc2cc(NC(=O)[C@H](CCCCNC(=O)CCC(=O)O)NC(=O)OCc3ccccc3)ccc12; test: as §4
[15] = tested on: CC(=O)N[C@@H](CC(C)C)C(=O)NCC(=O)N[C@@H](CO)C(=O)N[C@@H](CCCCNC(=O)CCC(=O)O)C(=O)Nc1ccc2c(C)cc(=O)oc2c1; test: as §4
[16] = tested on: CC(=O)N[C@@H](CO)C(=O)N[C@@H](CC(C)C)C(=O)NCC(=O)N[C@@H](CCCCNC(=O)CCC(=O)O)C(=O)Nc1ccc2c(C)cc(=O)oc2c1; test: as §4

Sequence of NAD-dependent protein deacylase sirtuin-5, mitochondrial (Homo sapiens), Q9NXA8 (Q9NXA8 whole entry): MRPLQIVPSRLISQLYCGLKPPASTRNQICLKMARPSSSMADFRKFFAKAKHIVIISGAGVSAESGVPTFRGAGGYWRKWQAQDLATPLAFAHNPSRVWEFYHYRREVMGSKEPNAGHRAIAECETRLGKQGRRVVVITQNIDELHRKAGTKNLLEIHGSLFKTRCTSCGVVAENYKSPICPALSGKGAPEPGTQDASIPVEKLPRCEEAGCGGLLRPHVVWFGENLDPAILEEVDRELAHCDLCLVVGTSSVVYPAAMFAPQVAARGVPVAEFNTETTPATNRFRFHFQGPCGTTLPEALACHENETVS

In the case of “NAD-dependent protein deacylase sirtuin-5, mitochondrial (Homo sapiens), Q9NXA8”, the kcat [1] is reported as 46.9 10^-3/s, the kcat [2] is reported as 2.6 10^-3/s and the kcat [3] is reported as 38.8 10^-3/s. The kcat [4] was 45.5 10^-3/s, the Vmax [5] was 141 nM/min and the Vmax [6] was 21.7 nM/min. The Vmax [7] was 116 nM/min, the Vmax [8] was 136 nM/min and the Km [9] was 57.5 µM. It also gave a Km [10] of 13.3 µM, a Km [11] of 47.6 µM and a Km [12] of 31.6 µM. The kcat/Km [13] was 815 M⁻¹ s⁻¹, the kcat/Km [14] was 160 M⁻¹ s⁻¹ and the kcat/Km [15] was 817 M⁻¹ s⁻¹. It also gave a kcat/Km [16] of 1440 M⁻¹ s⁻¹.

— ChEMBL document CHEMBL4680222, “Sensitive fluorogenic substrates for sirtuin deacylase inhibitor discovery” (Eur J Med Chem, 2020)
